Molecular target: Dlg1 (endogenous, mouse T cells) (mouse, UniProt Q811D0 1-905, limits assumed)
Assay: co-immunoprecipitation from activated mouse CD4+ T cell extracts, anti-Dlg1 IP, anti-Crtam immunoblot
Protocol: (A) Naïve CD4⁺ T cells from Crtam^{-/+} and Crtam^{-/-} mice were activated for the indicated times and cell extracts were immunoprecipitated with Abs against Scrib (upper panels) or Dlg1 (lower panels). Immune complexes were then analyzed by immunoblotting against Crtam. Data shown are representative of five independent experiments.
To assess the interaction of Crtam and PDZ-containing proteins, microbead purified CD4⁺ T cells were stimulated with plate-bound […] (10 μg/ml) and anti-CD28 (2 μg/ml) mAbs, whole cell extracts were immunoprecipitated using anti-Scrib antibody (K-21, Santa Cruz) and immune complexes analyzed by immunoblotting with anti-Crtam mAb (6E2, Genentech) or anti-Scrib Ab (H-300, Santa Cruz). The control experiment was performed using anti-Dlg1 Ab (H-60, Santa Cruz) for immunoprecipitation. […] Crtam-Flag was immunoprecipitated using anti-Flag M2-agarose beads (Sigma) and immune complexes were analyzed by immunoblotting with anti-GST (GE Healthcare Bio-Sciences) or anti-Crtam (6E2) mAbs.
To define the mechanism(s) by which Crtam regulates T cell morphology, we analyzed the ability of Scrib and Dlg1 to co-immunoprecipitate with Crtam in resting and activated T cells (FIG. 5A). Crtam was detected in Scrib, but not Dlg1, immunoprecipitates 14 h following TCR activation. […]

Chain of Dlg1 (endogenous, mouse T cells) (Q811D0 whole entry): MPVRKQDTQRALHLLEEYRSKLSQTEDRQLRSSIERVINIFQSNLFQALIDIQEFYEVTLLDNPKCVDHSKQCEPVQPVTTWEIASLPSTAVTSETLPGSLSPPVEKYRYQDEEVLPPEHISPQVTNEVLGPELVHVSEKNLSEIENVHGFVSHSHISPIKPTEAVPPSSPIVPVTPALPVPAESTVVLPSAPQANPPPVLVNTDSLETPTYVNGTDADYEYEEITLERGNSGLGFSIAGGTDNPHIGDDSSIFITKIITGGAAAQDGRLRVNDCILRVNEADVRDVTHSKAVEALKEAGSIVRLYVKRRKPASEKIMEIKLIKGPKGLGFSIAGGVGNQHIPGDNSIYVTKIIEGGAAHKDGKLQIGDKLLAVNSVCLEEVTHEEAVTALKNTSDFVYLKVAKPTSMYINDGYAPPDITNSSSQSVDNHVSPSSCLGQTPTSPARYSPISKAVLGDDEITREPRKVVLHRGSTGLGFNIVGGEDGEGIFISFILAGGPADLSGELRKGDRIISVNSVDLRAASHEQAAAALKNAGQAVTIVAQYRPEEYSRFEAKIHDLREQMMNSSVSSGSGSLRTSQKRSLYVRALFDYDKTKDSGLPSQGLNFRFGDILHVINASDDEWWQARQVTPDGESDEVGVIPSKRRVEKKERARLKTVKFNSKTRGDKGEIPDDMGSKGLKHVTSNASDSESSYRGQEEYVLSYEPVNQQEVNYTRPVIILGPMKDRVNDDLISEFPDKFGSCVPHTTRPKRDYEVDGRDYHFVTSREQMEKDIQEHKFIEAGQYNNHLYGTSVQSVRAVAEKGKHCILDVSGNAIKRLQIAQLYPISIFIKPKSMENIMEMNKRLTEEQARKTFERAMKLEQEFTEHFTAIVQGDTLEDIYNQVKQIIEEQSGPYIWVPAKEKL

B1: mouse Crtam (endogenous, on activated mouse T cells) (receptor)
chain: AFLKMETVTVEEGQTLTLTCVTSQTKNVSLQWLAPSGFTIFLNQHPALKSSKYQLLHHSATQLSISVSNVTLREEGVYTCLHYGSSVKTKQVRVTVLVTPFQPTVEALVLRRQNGEKSVVLKCSTERSKPPPQITWLLGEGLEIYGELHHEFEADGKICNTSSTLIARAYGKNSTVHCIIQHEGLHGRKLVAPFQFEDLVADQETTSDAPEQSSLSSQALQQPTSTVSMMENSSIPETDKEEKEHATQDPGLSTASAQHTGLARRKSGILLLTLVSFLIFILFIIVQLFIMKLRKAHVVWKKESEISEQALESYRSRSNNEETSSQENSSQAPQSKRCMNYITQLYSGAKTKKSAQHWKLGGKHSRVPESIV
notes: Endogenous protein of mouse CD4+ or CD8+ T cells; In the co-immunoprecipitations it came from whole cell extracts; In flow cytometry and the Cadm1(ECD)-Fc assay it was on the cell surface; also called class-I MHC restricted T-cell associated molecule
binding result: no binding
